Drawing on the Human Domainome abundance scans (Beltran et al. 2025), this text covers abundance fitness for 50 variants.

B1: Pyruvate dehydrogenase protein X component, mitochondrial, residues 181 to 227; numbered along this chain, O00330 (parent)
chain: RFRLSPAARNILEKHSLDASQGTATGPRGIFTKEDALKLVQLKQTGK

± gives the uncertainty stated by the source.

This series covers variants of B1. As to the kind of experiment: abundance fitness (aPCA) (normalised: wild type 0, dead -1); higher = more abundant; growth selection in yeast, the domain comes from the species named. The conditions noted are these: Homo sapiens.
On to WFRLSPAARNILEKHSLDASQGTATGPRGIFTKEDALKLVQLKQTGK [R1W], for which the abundance fitness is -0.651 ± 0.16. To IFRLSPAARNILEKHSLDASQGTATGPRGIFTKEDALKLVQLKQTGK [R1I] belongs -0.317 ± 0.36. As for NFRLSPAARNILEKHSLDASQGTATGPRGIFTKEDALKLVQLKQTGK [R1N], the abundance fitness was -0.353 ± 0.29. To GFRLSPAARNILEKHSLDASQGTATGPRGIFTKEDALKLVQLKQTGK [R1G] belongs 0.171 ± 0.063. With PFRLSPAARNILEKHSLDASQGTATGPRGIFTKEDALKLVQLKQTGK [R1P] the figure was -1.1 ± 0.25; with EFRLSPAARNILEKHSLDASQGTATGPRGIFTKEDALKLVQLKQTGK [R1E], -0.206 ± 0.14. With CFRLSPAARNILEKHSLDASQGTATGPRGIFTKEDALKLVQLKQTGK [R1C] the figure was -0.516 ± 0.27. In the case of MFRLSPAARNILEKHSLDASQGTATGPRGIFTKEDALKLVQLKQTGK [R1M], the abundance fitness is -0.489 ± 0.17. Regarding RFALSPAARNILEKHSLDASQGTATGPRGIFTKEDALKLVQLKQTGK [R3A], the abundance fitness was -0.504 ± 0.061. As for RFFLSPAARNILEKHSLDASQGTATGPRGIFTKEDALKLVQLKQTGK [R3F], the abundance fitness came out at 0.144 ± 0.06. To RFQLSPAARNILEKHSLDASQGTATGPRGIFTKEDALKLVQLKQTGK [R3Q] belongs -0.374 ± 0.084. To RFELSPAARNILEKHSLDASQGTATGPRGIFTKEDALKLVQLKQTGK [R3E] belongs -0.57 ± 0.069; to RFNLSPAARNILEKHSLDASQGTATGPRGIFTKEDALKLVQLKQTGK [R3N], 0.31 ± 0.1. With RFPLSPAARNILEKHSLDASQGTATGPRGIFTKEDALKLVQLKQTGK [R3P] the figure was -0.188 ± 0.073; with RFVLSPAARNILEKHSLDASQGTATGPRGIFTKEDALKLVQLKQTGK [R3V], 0.04 ± 0.045. On to RFDLSPAARNILEKHSLDASQGTATGPRGIFTKEDALKLVQLKQTGK [R3D], for which the abundance fitness is -0.594 ± 0.13. On to RFWLSPAARNILEKHSLDASQGTATGPRGIFTKEDALKLVQLKQTGK [R3W], for which the abundance fitness is -0.119 ± 0.046.

With RFLLSPAARNILEKHSLDASQGTATGPRGIFTKEDALKLVQLKQTGK [R3L], the abundance fitness is -0.393 ± 0.05.

Consider RFHLSPAARNILEKHSLDASQGTATGPRGIFTKEDALKLVQLKQTGK [R3H], for which the abundance fitness stood at 0.04 ± 0.11. With RFSLSPAARNILEKHSLDASQGTATGPRGIFTKEDALKLVQLKQTGK [R3S] the figure was -0.14 ± 0.055. To RFGLSPAARNILEKHSLDASQGTATGPRGIFTKEDALKLVQLKQTGK [R3G] belongs -0.336 ± 0.047. With RFKLSPAARNILEKHSLDASQGTATGPRGIFTKEDALKLVQLKQTGK [R3K] the figure was -0.16 ± 0.078. On to RFCLSPAARNILEKHSLDASQGTATGPRGIFTKEDALKLVQLKQTGK [R3C], for which the abundance fitness is -0.064 ± 0.069.

Consider RFYLSPAARNILEKHSLDASQGTATGPRGIFTKEDALKLVQLKQTGK [R3Y], for which the abundance fitness worked out at 0.109 ± 0.077.

Turning to RFILSPAARNILEKHSLDASQGTATGPRGIFTKEDALKLVQLKQTGK [R3I], the abundance fitness worked out at 0.367 ± 0.097. To RFMLSPAARNILEKHSLDASQGTATGPRGIFTKEDALKLVQLKQTGK [R3M] belongs -0.091 ± 0.077; to RVRLSPAARNILEKHSLDASQGTATGPRGIFTKEDALKLVQLKQTGK [F2V], -0.486 ± 0.056. With RMRLSPAARNILEKHSLDASQGTATGPRGIFTKEDALKLVQLKQTGK [F2M] the figure was 0.137 ± 0.081.

Take RARLSPAARNILEKHSLDASQGTATGPRGIFTKEDALKLVQLKQTGK [F2A]: the abundance fitness was -0.536 ± 0.063. To RERLSPAARNILEKHSLDASQGTATGPRGIFTKEDALKLVQLKQTGK [F2E] belongs -0.316 ± 0.059; to RYRLSPAARNILEKHSLDASQGTATGPRGIFTKEDALKLVQLKQTGK [F2Y], -0.015 ± 0.083; to RKRLSPAARNILEKHSLDASQGTATGPRGIFTKEDALKLVQLKQTGK [F2K], -0.232 ± 0.073. To RCRLSPAARNILEKHSLDASQGTATGPRGIFTKEDALKLVQLKQTGK [F2C] belongs -0.605 ± 0.075; to RDRLSPAARNILEKHSLDASQGTATGPRGIFTKEDALKLVQLKQTGK [F2D], -0.267 ± 0.088; to RHRLSPAARNILEKHSLDASQGTATGPRGIFTKEDALKLVQLKQTGK [F2H], -0.878 ± 0.16.

For RWRLSPAARNILEKHSLDASQGTATGPRGIFTKEDALKLVQLKQTGK [F2W], the abundance fitness is -1.25 ± 0.11. To RTRLSPAARNILEKHSLDASQGTATGPRGIFTKEDALKLVQLKQTGK [F2T] belongs -0.323 ± 0.079.

For RGRLSPAARNILEKHSLDASQGTATGPRGIFTKEDALKLVQLKQTGK [F2G], the abundance fitness was -0.535 ± 0.04. With RRRLSPAARNILEKHSLDASQGTATGPRGIFTKEDALKLVQLKQTGK [F2R] the figure was -0.65 ± 0.041; with RQRLSPAARNILEKHSLDASQGTATGPRGIFTKEDALKLVQLKQTGK [F2Q], -0.679 ± 0.13; with RNRLSPAARNILEKHSLDASQGTATGPRGIFTKEDALKLVQLKQTGK [F2N], 0.091 ± 0.073.

Regarding RIRLSPAARNILEKHSLDASQGTATGPRGIFTKEDALKLVQLKQTGK [F2I], the abundance fitness was -0.059 ± 0.1. To RSRLSPAARNILEKHSLDASQGTATGPRGIFTKEDALKLVQLKQTGK [F2S] belongs -0.239 ± 0.046; to RLRLSPAARNILEKHSLDASQGTATGPRGIFTKEDALKLVQLKQTGK [F2L], -0.46 ± 0.046. RPRLSPAARNILEKHSLDASQGTATGPRGIFTKEDALKLVQLKQTGK [F2P]: the abundance fitness was -1.1 ± 0.14. With RFRESPAARNILEKHSLDASQGTATGPRGIFTKEDALKLVQLKQTGK [L4E] the figure was -0.104 ± 0.046. With RFRFSPAARNILEKHSLDASQGTATGPRGIFTKEDALKLVQLKQTGK [L4F] the figure was -0.284 ± 0.14; with RFRCSPAARNILEKHSLDASQGTATGPRGIFTKEDALKLVQLKQTGK [L4C], -0.086 ± 0.064. As to RFRDSPAARNILEKHSLDASQGTATGPRGIFTKEDALKLVQLKQTGK [L4D], the abundance fitness turned out to be 0.005 ± 0.097. With RFRASPAARNILEKHSLDASQGTATGPRGIFTKEDALKLVQLKQTGK [L4A] the figure was -0.37 ± 0.063.
